From PMC9482650, “Quantitative fragmentomics allow affinity mapping of interactomes” (Nature Communications, 2022)

Legend:
Assay in all cases: holdup assay
Design in all cases: key: below the threshold = too weak to quantify, mostly under pKd 3.1 to 4
Details in all cases: plain residues with an end cap or a label only (N-terminal biotin on a linker: ado-ado)
FRMPD2_1, Q68DX3 = target: FRMPD2_1, Q68DX3
LNX2_2, Q8N448 = target: T1, LNX2_2, Q8N448
T1 sequence (Q8N448 334-432, limits assumed, looked up): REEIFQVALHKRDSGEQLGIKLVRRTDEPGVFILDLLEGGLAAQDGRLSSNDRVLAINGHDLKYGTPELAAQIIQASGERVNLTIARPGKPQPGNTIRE

FRMPD2_2, Q68DX3 = target: FRMPD2_2, Q68DX3
TJP2_1, Q9UDY2 = target: TJP2_1, Q9UDY2
HTRA2, O43464 = target: HTRA2, O43464
MAGI2_5, Q86UL8 = target: MAGI2_5, Q86UL8
DLG3_1, Q92796 = target: T2, DLG3_1, Q92796
T2 sequence (Q92796 125-227, limits assumed, looked up): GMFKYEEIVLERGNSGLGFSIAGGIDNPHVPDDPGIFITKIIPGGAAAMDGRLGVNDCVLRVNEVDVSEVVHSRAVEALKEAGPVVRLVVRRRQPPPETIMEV

PICK1, Q9NRD5 = target: PICK1, Q9NRD5
GOPC, Q9HD26 = target: GOPC, Q9HD26
GORASP2, Q9H8Y8 = target: GORASP2, Q9H8Y8
GRIP1_5, Q9Y3R0 = target: T3, GRIP1_5, Q9Y3R0
T3 sequence (Q9Y3R0 568-668, limits assumed, looked up): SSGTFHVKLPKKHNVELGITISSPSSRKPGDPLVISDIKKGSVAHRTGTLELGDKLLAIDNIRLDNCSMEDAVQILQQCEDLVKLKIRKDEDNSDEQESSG

DLG3_2, Q92796 = target: T4, DLG3_2, Q92796
T4 sequence (Q92796 221-321, limits assumed, looked up): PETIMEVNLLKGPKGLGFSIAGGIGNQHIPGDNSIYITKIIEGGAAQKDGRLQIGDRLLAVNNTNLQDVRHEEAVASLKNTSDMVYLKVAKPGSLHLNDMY

TX1BP3, O14907 = target: T5, TX1BP3, O14907
T5 sequence (O14907 10-122, limits assumed, looked up): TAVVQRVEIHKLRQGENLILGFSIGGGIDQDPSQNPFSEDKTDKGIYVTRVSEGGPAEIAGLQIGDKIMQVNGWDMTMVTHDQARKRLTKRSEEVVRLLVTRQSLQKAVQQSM

MPDZ_12, O75970 = target: T6, MPDZ_12, O75970
T6 sequence (O75970 1857-1958, limits assumed, looked up): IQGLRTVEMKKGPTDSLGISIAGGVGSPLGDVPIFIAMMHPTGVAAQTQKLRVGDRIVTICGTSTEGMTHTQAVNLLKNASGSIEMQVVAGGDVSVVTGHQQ

Inadl_3, Q8NI35 = target: Inadl_3, Q8NI35
Inadl_6, Q8NI35 = target: Inadl_6, Q8NI35
FRMPD1, Q5SYB0 = target: T7, FRMPD1, Q5SYB0
T7 sequence (Q5SYB0 52-145, limits assumed, looked up): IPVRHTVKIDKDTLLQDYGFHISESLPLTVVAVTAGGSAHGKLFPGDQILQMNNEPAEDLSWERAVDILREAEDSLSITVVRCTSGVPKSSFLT

SNTB1, Q13884 = target: T8, SNTB1, Q13884
T8 sequence (Q13884 107-205, limits assumed, looked up): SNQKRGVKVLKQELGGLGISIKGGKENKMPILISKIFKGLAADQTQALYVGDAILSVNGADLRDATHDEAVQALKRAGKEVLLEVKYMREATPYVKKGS

MAST2, Q6P0Q8 = target: MAST2, Q6P0Q8
Inadl_8, Q8NI35 = target: Inadl_8, Q8NI35
MAGI2_4, Q86UL8 = target: MAGI2_4, Q86UL8
PTPN3, P26045 = target: PTPN3, P26045
MAST1, Q9Y2H9 = target: MAST1, Q9Y2H9
DLG4_1, P78352 = target: DLG4_1, P78352
PARD3B_1, Q8TEW8 = target: T9, PARD3B_1, Q8TEW8
T9 sequence (Q8TEW8 196-299, limits assumed, looked up): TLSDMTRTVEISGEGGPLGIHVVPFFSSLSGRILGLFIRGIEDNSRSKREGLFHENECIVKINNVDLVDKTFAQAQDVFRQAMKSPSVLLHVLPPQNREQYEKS

SCRIB_3, Q14160 = target: SCRIB_3, Q14160
RAPGEF6, Q8TEU7 = target: T10, RAPGEF6, Q8TEU7
T10 sequence (Q8TEU7 525-625, limits assumed, looked up): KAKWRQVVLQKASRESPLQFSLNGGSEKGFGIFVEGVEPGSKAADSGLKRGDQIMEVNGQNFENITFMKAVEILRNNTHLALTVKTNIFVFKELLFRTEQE

HTRA2, O43464, sequence (O43464 355-458): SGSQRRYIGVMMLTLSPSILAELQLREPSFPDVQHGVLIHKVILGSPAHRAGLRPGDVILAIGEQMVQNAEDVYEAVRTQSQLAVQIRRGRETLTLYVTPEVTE
DLG4_1, P78352, sequence (P78352 62-152): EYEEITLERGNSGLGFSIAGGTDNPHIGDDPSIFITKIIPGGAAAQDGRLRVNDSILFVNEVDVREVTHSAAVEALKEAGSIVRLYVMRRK
FRMPD2_1, Q68DX3, sequence (Q68DX3 770-861): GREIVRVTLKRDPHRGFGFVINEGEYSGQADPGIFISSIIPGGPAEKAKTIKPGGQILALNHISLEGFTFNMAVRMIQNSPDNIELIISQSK
PICK1, Q9NRD5, sequence (Q9NRD5 17-115): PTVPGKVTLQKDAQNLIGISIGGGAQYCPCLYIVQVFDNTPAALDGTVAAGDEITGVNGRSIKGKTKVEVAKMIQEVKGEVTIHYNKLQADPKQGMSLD
FRMPD2_2, Q68DX3, sequence (Q68DX3 944-1038): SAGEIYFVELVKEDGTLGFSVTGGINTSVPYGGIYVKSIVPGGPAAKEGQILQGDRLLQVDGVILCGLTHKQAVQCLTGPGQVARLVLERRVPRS
SCRIB_3, Q14160, sequence (Q14160 999-1103): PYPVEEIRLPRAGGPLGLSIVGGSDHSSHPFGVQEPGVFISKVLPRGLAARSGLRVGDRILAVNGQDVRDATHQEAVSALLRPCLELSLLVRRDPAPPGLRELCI
MAGI2_4, Q86UL8, sequence (Q86UL8 772-865): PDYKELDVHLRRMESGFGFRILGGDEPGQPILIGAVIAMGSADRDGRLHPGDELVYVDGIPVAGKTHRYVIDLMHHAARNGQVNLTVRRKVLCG
Inadl_3, Q8NI35, sequence (Q8NI35 359-469): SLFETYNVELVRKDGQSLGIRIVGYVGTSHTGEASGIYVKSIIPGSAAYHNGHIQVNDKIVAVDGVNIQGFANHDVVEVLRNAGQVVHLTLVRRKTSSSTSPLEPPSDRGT
PTPN3, P26045, sequence (P26045 505-587): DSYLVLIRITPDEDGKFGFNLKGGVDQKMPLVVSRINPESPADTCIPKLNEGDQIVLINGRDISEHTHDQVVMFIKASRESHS
MAST1, Q9Y2H9, sequence (Q9Y2H9 962-1065): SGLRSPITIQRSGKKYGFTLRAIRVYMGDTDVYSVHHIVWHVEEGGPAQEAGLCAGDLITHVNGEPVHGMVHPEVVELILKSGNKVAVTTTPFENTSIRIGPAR
TJP2_1, Q9UDY2, sequence (Q9UDY2 24-128): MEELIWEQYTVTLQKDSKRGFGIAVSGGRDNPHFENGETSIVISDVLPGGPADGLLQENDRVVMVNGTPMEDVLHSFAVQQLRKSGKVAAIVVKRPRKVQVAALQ
MAST2, Q6P0Q8, sequence (Q6P0Q8 1099-1202): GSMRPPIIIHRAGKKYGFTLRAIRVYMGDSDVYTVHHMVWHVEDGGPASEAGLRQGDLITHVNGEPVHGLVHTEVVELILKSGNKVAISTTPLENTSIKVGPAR
Inadl_8, Q8NI35, sequence (Q8NI35 1425-1530): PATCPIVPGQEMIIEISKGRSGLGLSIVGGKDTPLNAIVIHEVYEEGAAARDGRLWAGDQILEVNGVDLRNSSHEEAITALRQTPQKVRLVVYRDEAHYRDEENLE
Inadl_6, Q8NI35, sequence (Q8NI35 1058-1167): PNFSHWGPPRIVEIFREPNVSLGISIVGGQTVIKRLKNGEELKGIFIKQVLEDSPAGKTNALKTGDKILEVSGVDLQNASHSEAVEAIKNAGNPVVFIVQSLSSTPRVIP
MAGI2_5, Q86UL8, sequence (Q86UL8 915-1017): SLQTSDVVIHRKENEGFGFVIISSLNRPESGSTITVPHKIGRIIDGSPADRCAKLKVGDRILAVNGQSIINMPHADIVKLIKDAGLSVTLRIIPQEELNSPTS

In the case of LRYARPADAL [PPP1R3G, B7ZBB8], the pKd (FRMPD2_1, Q68DX3) is reported as “below the threshold”, the pKd (LNX2_2, Q8N448) is reported as “below the threshold” and the pKd (FRMPD2_2, Q68DX3) is reported as “below the threshold”. For the same binder, the pKd (TJP2_1, Q9UDY2) was “below the threshold”, the pKd (HTRA2, O43464) was “below the threshold” and the pKd (MAGI2_5, Q86UL8) was “below the threshold”. For the same binder, the pKd (DLG3_1, Q92796) was “below the threshold”, the pKd (PICK1, Q9NRD5) was “below the threshold” and the pKd (GOPC, Q9HD26) was “below the threshold”. For the same binder, the pKd (GORASP2, Q9H8Y8) was “below the threshold”, the pKd (GRIP1_5, Q9Y3R0) was “below the threshold” and the pKd (DLG3_2, Q92796) was “below the threshold”. The pKd (TX1BP3, O14907) was “below the threshold”, the pKd (MPDZ_12, O75970) was “below the threshold” and the pKd (Inadl_3, Q8NI35) was “below the threshold”. For the same binder, the pKd (Inadl_6, Q8NI35) was “below the threshold”, the pKd (FRMPD1, Q5SYB0) was “below the threshold” and the pKd (SNTB1, Q13884) was “below the threshold”. The pKd (MAST2, Q6P0Q8) was “below the threshold”, the pKd (Inadl_8, Q8NI35) was “below the threshold” and the pKd (MAGI2_4, Q86UL8) was “below the threshold”. The pKd (PTPN3, P26045) was “below the threshold”, the pKd (MAST1, Q9Y2H9) was 3.73 and the pKd (DLG4_1, P78352) was “below the threshold”. The pKd (PARD3B_1, Q8TEW8) was “below the threshold”, the pKd (SCRIB_3, Q14160) was “below the threshold” and the pKd (RAPGEF6, Q8TEU7) was “below the threshold”.

For EYRKDNKVAA [LSM14A, Q8ND56;Q8ND56-2], the pKd (LNX2_2, Q8N448) was “below the threshold”, the pKd (FRMPD2_2, Q68DX3) was “below the threshold” and the pKd (HTRA2, O43464) was “below the threshold”. For the same binder, the pKd (MAGI2_5, Q86UL8) was “below the threshold”, the pKd (PICK1, Q9NRD5) was “below the threshold” and the pKd (GOPC, Q9HD26) was “below the threshold”. For the same binder, the pKd (DLG3_2, Q92796) was 4.23, the pKd (TX1BP3, O14907) was “below the threshold” and the pKd (Inadl_3, Q8NI35) was “below the threshold”. The pKd (Inadl_6, Q8NI35) was “below the threshold”, the pKd (FRMPD1, Q5SYB0) was “below the threshold” and the pKd (SNTB1, Q13884) was “below the threshold”. The pKd (MAST2, Q6P0Q8) was “below the threshold”, the pKd (Inadl_8, Q8NI35) was “below the threshold” and the pKd (MAGI2_4, Q86UL8) was “below the threshold”. For the same binder, the pKd (PTPN3, P26045) was 3.95, the pKd (MAST1, Q9Y2H9) was “below the threshold” and the pKd (DLG4_1, P78352) was “below the threshold”. For the same binder, the pKd (PARD3B_1, Q8TEW8) was “below the threshold”, the pKd (SCRIB_3, Q14160) was “below the threshold” and the pKd (RAPGEF6, Q8TEU7) was “below the threshold”.

In the case of GDHLDRRVVL [VAC14, Q08AM6], the pKd (FRMPD2_1, Q68DX3) is reported as 3.62, the pKd (LNX2_2, Q8N448) is reported as 3.48 and the pKd (FRMPD2_2, Q68DX3) is reported as “below the threshold”. For the same binder, the pKd (TJP2_1, Q9UDY2) was “below the threshold”, the pKd (HTRA2, O43464) was 3.48 and the pKd (MAGI2_5, Q86UL8) was “below the threshold”. The pKd (DLG3_1, Q92796) was “below the threshold”, the pKd (PICK1, Q9NRD5) was “below the threshold” and the pKd (GOPC, Q9HD26) was “below the threshold”. The pKd (GORASP2, Q9H8Y8) was 3.87, the pKd (GRIP1_5, Q9Y3R0) was “below the threshold” and the pKd (DLG3_2, Q92796) was “below the threshold”. For the same binder, the pKd (TX1BP3, O14907) was 3.71, the pKd (MPDZ_12, O75970) was 3.75 and the pKd (Inadl_3, Q8NI35) was “below the threshold”. For the same binder, the pKd (Inadl_6, Q8NI35) was “below the threshold”, the pKd (FRMPD1, Q5SYB0) was “below the threshold” and the pKd (SNTB1, Q13884) was “below the threshold”. For the same binder, the pKd (MAST2, Q6P0Q8) was 4.1, the pKd (Inadl_8, Q8NI35) was “below the threshold” and the pKd (MAGI2_4, Q86UL8) was “below the threshold”. For the same binder, the pKd (PTPN3, P26045) was 3.92, the pKd (MAST1, Q9Y2H9) was 4.17 and the pKd (DLG4_1, P78352) was “below the threshold”. The pKd (PARD3B_1, Q8TEW8) was 5.17, the pKd (SCRIB_3, Q14160) was “below the threshold” and the pKd (RAPGEF6, Q8TEU7) was “below the threshold”.

KSTTRSSSSC [NDE1, Q9NXR1;Q9NXR1-2] was tested, and the pKd (FRMPD2_1, Q68DX3) was “below the threshold”, the pKd (LNX2_2, Q8N448) was “below the threshold” and the pKd (FRMPD2_2, Q68DX3) was “below the threshold”. For the same binder, the pKd (TJP2_1, Q9UDY2) was “below the threshold”, the pKd (HTRA2, O43464) was “below the threshold” and the pKd (MAGI2_5, Q86UL8) was “below the threshold”. For the same binder, the pKd (DLG3_1, Q92796) was “below the threshold”, the pKd (PICK1, Q9NRD5) was “below the threshold” and the pKd (GOPC, Q9HD26) was “below the threshold”. For the same binder, the pKd (GORASP2, Q9H8Y8) was “below the threshold”, the pKd (GRIP1_5, Q9Y3R0) was “below the threshold” and the pKd (DLG3_2, Q92796) was 4.07. The pKd (TX1BP3, O14907) was 3.93, the pKd (MPDZ_12, O75970) was “below the threshold” and the pKd (Inadl_3, Q8NI35) was “below the threshold”. For the same binder, the pKd (Inadl_6, Q8NI35) was “below the threshold”, the pKd (FRMPD1, Q5SYB0) was “below the threshold” and the pKd (SNTB1, Q13884) was “below the threshold”. The pKd (MAST2, Q6P0Q8) was 4.06, the pKd (Inadl_8, Q8NI35) was 4.18 and the pKd (MAGI2_4, Q86UL8) was “below the threshold”. The pKd (DLG4_1, P78352) was “below the threshold”, the pKd (PARD3B_1, Q8TEW8) was “below the threshold” and the pKd (SCRIB_3, Q14160) was “below the threshold”. The pKd (RAPGEF6, Q8TEU7) was “below the threshold”.
